The values below come from the Immune Epitope Database (IEDB).

Holding throughout (experiment): IEDB peptide-MHC binding, purified MHC/competitive/radioactivity; filed as Kd, often an IC50 or EC50 that approximates it; ≥ and ≤ were set here for values at or beyond the usual limits of such assays
Experiment [1] deals with HLA-A*11:01.
Experiment [2] deals with HLA-A*31:01.
Experiment [3] deals with HLA-A*03:01.
Experiment [4] deals with HLA-A*68:01.
The target in experiment [5] is HLA-A*33:01.
[6] abbreviates: source organism: Vaccinia virus WR.
Where [7] appears, read: source organism: SARS coronavirus Tor2.
The mark [8] stands for this setting: source organism: Vaccinia virus.
Where [9] appears, read: source organism: Mammarenavirus lassaense.

Where only a bound is given, the exact number is not on record here.

YALINLVQYR: the Kd in experiment [1] (setting [6]) was 6860 nM; in experiment [2] (setting [6]), 570 nM; in experiment [3] (setting [6]), 11700 nM; in experiment [4] (setting [6]) it was 21.8 nM; in experiment [5] (setting [6]), 1270 nM.

For FTTSLSLHK, the Kd came out at 181 nM in experiment [1] (setting [7]); 2860 nM in experiment [2] (setting [7]); 1350 nM in experiment [3] (setting [7]); 271 nM in experiment [4] (setting [7]); 1130 nM in experiment [5] (setting [7]).

On to KLSYGIATVR, for which the equilibrium dissociation constant (Kd) was determined as 1420 nM in experiment [1] (setting [7]); 278 nM in experiment [2] (setting [7]); 879 nM in experiment [3] (setting [7]); 89 nM in experiment [4] (setting [7]); 15300 nM in experiment [5] (setting [7]).

Regarding LSSIKSKSR, the Kd in experiment [1] (setting [6]) amounted to 4160 nM; in experiment [2] (setting [6]), 755 nM; in experiment [3] (setting [6]), 3070 nM; in experiment [4] (setting [6]), 612 nM; in experiment [5] (setting [6]), 1570 nM.

Regarding FFTELENKK, the dissociation constant (Kd) in experiment [1] (setting [6]) was 6190 nM; in experiment [2] (setting [6]) it was not below 25700 nM; in experiment [3] (setting [6]), not below 78000 nM; in experiment [4] (setting [6]), 3360 nM; in experiment [5] (setting [6]), not below 30900 nM.

For LIDTTSRELK, the equilibrium dissociation constant (Kd) is 162 nM in experiment [1] (setting [6]); 147 nM in experiment [2] (setting [6]); 38.9 nM in experiment [3] (setting [6]); 432 nM in experiment [4] (setting [6]); 716 nM in experiment [5] (setting [6]).

With DTIVSRSSR, the Kd was not below 77900 nM in experiment [1] (setting [6]); 1410 nM in experiment [2] (setting [6]); not below 78000 nM in experiment [3] (setting [6]); 5.79 nM in experiment [4] (setting [6]); 5.71 nM in experiment [5] (setting [6]).

For VTSSGTIYK, the Kd in experiment [1] (setting [8]) was found to be 0.595 nM; in experiment [2] (setting [8]) it was 0.577 nM; in experiment [3] (setting [8]), 8.08 nM; in experiment [4] (setting [8]), 16.8 nM; in experiment [5] (setting [8]), 10.2 nM.

KIIETYLGR: the Kd in experiment [1] (setting [6]) is not below 77900 nM; in experiment [2] (setting [6]) it was not below 77900 nM; in experiment [3] (setting [6]), not below 78000 nM; in experiment [4] (setting [6]), not below 77700 nM; in experiment [5] (setting [6]) it was not below 77700 nM.

Consider ALCTLLHLHR, for which the Kd in experiment [1] (setting [7]) turned out to be 470 nM; in experiment [2] (setting [7]) it was 51 nM; in experiment [3] (setting [7]), 301 nM; in experiment [4] (setting [7]) it was 3410 nM; in experiment [5] (setting [7]) it was 401 nM.

As to VTTKDYFSFK, the dissociation constant (Kd) in experiment [1] (setting [6]) was determined as 11 nM; in experiment [2] (setting [6]), 561 nM; in experiment [3] (setting [6]), 26.1 nM; in experiment [4] (setting [6]), 155 nM; in experiment [5] (setting [6]) it was 7280 nM.

Regarding LITLILSNK, the dissociation constant (Kd) in experiment [1] (setting [6]) was 19 nM; in experiment [2] (setting [6]), 2080 nM; in experiment [3] (setting [6]), 20.9 nM; in experiment [4] (setting [6]) it was 32.7 nM; in experiment [5] (setting [6]), 6720 nM.

On to IQLDEKSSIK, for which the Kd in experiment [1] (setting [6]) was 4.57 nM; in experiment [2] (setting [6]), 81.1 nM; in experiment [3] (setting [6]) it was 1.25 nM; in experiment [4] (setting [6]), 551 nM; in experiment [5] (setting [6]) it was not below 70000 nM.

Take AAYYFMKFR: the dissociation constant (Kd) was 47.2 nM in experiment [1] (setting [7]); 1.23 nM in experiment [2] (setting [7]); 124 nM in experiment [3] (setting [7]); 15.4 nM in experiment [4] (setting [7]); 117 nM in experiment [5] (setting [7]).

As to ALSEAREHLK, the Kd in experiment [1] (setting [7]) is 141 nM; in experiment [2] (setting [7]) it was 5320 nM; in experiment [3] (setting [7]), 80.6 nM; in experiment [4] (setting [7]) it was 2960 nM; in experiment [5] (setting [7]), not below 70000 nM.

With VALYRRIQRR, the equilibrium dissociation constant (Kd) is not below 48200 nM in experiment [1] (setting [6]); 562 nM in experiment [2] (setting [6]); not below 70100 nM in experiment [3] (setting [6]); not below 30500 nM in experiment [4] (setting [6]); 1340 nM in experiment [5] (setting [6]).

Regarding DVSLIIEYK, the Kd came out at 152 nM in experiment [1] (setting [6]); 72.2 nM in experiment [2] (setting [6]); 16100 nM in experiment [3] (setting [6]); 3.57 nM in experiment [4] (setting [6]); 111 nM in experiment [5] (setting [6]).

Consider KQLCYCPASK, for which the equilibrium dissociation constant (Kd) is 13.9 nM in experiment [1] (setting [6]); 31 nM in experiment [2] (setting [6]); 27.1 nM in experiment [3] (setting [6]); 11300 nM in experiment [4] (setting [6]); not below 31100 nM in experiment [5] (setting [6]).

As for KSIENKHQRR, the dissociation constant (Kd) in experiment [1] (setting [6]) was 198 nM; in experiment [2] (setting [6]) it was 0.608 nM; in experiment [3] (setting [6]), 11100 nM; in experiment [4] (setting [6]), 11200 nM; in experiment [5] (setting [6]), 9320 nM.

Turning to EQLQLLMPLK, the dissociation constant Kd in experiment [1] (setting [7]) is 150 nM; in experiment [2] (setting [7]), 2940 nM; in experiment [3] (setting [7]) it was 1200 nM; in experiment [4] (setting [7]), 1790 nM; in experiment [5] (setting [7]) it was 2370 nM.

For VMNIERQDY, the dissociation constant (Kd) is 6110 nM in experiment [1] (setting [6]); 3880 nM in experiment [2] (setting [6]); not below 61100 nM in experiment [3] (setting [6]); 53.2 nM in experiment [4] (setting [6]); 747 nM in experiment [5] (setting [6]).

As for QCKDLCHMH, the dissociation constant Kd was not below 77900 nM in experiment [1] (setting [9]); 526 nM in experiment [2] (setting [9]); not below 71900 nM in experiment [3] (setting [9]); 1520 nM in experiment [4] (setting [9]); 12300 nM in experiment [5] (setting [9]).

Consider TVHKLTQDEK, for which the Kd was 80.5 nM in experiment [1] (setting [6]); not below 70000 nM in experiment [2] (setting [6]); 12300 nM in experiment [3] (setting [6]); 220 nM in experiment [4] (setting [6]); not below 70000 nM in experiment [5] (setting [6]).

In general, Kd refers to the equilibrium constant for the complex coming apart.
